Legend:
[1] = target: human CD47 on cells (SHP-77 tumor cells, human red blood cells, CCRF-CEM cells, human CD47 CHO-K1 stable cell line) (human) (UniProt Q08722); experiment: flow cytometry on SHP-77 cells
[2] = target: wild type human CD47 (Acro Biosystems, cat. no. CD7-H5227) (human) (UniProt Q08722); experiment: SPR, IgG captured, CD47 in flow; exp 1
Human CD47-C33G (human) [3] = target: Human CD47-C33G (human) (UniProt Q08722); experiment: SPR, IgG captured, CD47 in flow; exp 1
Human CD47-C33G (human) [4] = target: Human CD47-C33G (human) (UniProt Q08722); experiment: SPR, IgG captured, CD47 in flow; exp 1; estimated, out of instrument limit
[5] = target: wild type human CD47 (Acro Biosystems, cat. no. CD7-H5227) (human) (UniProt Q08722); experiment: SPR, IgG captured, CD47 in flow; exp 4
Human CD47-C33G (human) [6] = target: Human CD47-C33G (human) (UniProt Q08722); experiment: SPR, IgG captured, CD47 in flow; exp 4
[7] = target: wild type human CD47 (Acro Biosystems, cat. no. CD7-H5227) (human) (UniProt Q08722); experiment: SPR, IgG captured, CD47 in flow; exp 2
Human CD47-C33G (human) [8] = target: Human CD47-C33G (human) (UniProt Q08722); experiment: SPR, IgG captured, CD47 in flow; exp 2
[9] = target: human CD47 on cells (SHP-77 tumor cells, human red blood cells, CCRF-CEM cells, human CD47 CHO-K1 stable cell line) (human) (UniProt Q08722); experiment: flow cytometry on human CD47 CHO-K1 cells; plateau not reached, not accurate
[10] = target: human CD47 on cells (SHP-77 tumor cells, human red blood cells, CCRF-CEM cells, human CD47 CHO-K1 stable cell line) (human) (UniProt Q08722); experiment: flow cytometry on human RBCs
[11] = target: human CD47 on cells (SHP-77 tumor cells, human red blood cells, CCRF-CEM cells, human CD47 CHO-K1 stable cell line) (human) (UniProt Q08722); experiment: cell-based or functional assay
[12] = target: wild type human CD47 (Acro Biosystems, cat. no. CD7-H5227) (human) (UniProt Q08722); experiment: SPR, IgG captured, CD47 in flow; exp 3
Human CD47-C33G (human) [13] = target: Human CD47-C33G (human) (UniProt Q08722); experiment: SPR, IgG captured, CD47 in flow; exp 3
[14] = target: wild type human CD47 (Acro Biosystems, cat. no. CD7-H5227) (human) (UniProt Q08722); experiment: SPR, IgG captured, CD47 in flow; exp 2; remark: listed apart in the source
Human CD47-C33G (human) [15] = target: Human CD47-C33G (human) (UniProt Q08722); experiment: SPR, IgG captured, CD47 in flow; exp 2; remark: listed apart in the source
[16] = target: cynomolgus CD47 on CHO-K1 stable cell line (cynomolgus); experiment: flow cytometry on cynomolgus CD47 CHO-K1 cells; plateau not reached, not accurate
Human CD47-C33G (human) [17] = target: Human CD47-C33G (human) (UniProt Q08722); experiment: SPR, IgG captured, CD47 in flow; exp 2; estimated, out of instrument limit
[18] = target: wild type human CD47 (Acro Biosystems, cat. no. CD7-H5227) (human) (UniProt Q08722); experiment: SPR, IgG captured, CD47 in flow; exp 1; remark: listed apart in the source
Human CD47-C33G (human) [19] = target: Human CD47-C33G (human) (UniProt Q08722); experiment: SPR, IgG captured, CD47 in flow; exp 1; remark: listed apart in the source
Human CD47-C33G (human) [20] = target: Human CD47-C33G (human) (UniProt Q08722); experiment: SPR, IgG captured, CD47 in flow; exp 3; estimated, out of instrument limit

cynomolgus CD47 on CHO-K1 stable cell line (cynomolgus), sequence (chain, as listed by the source): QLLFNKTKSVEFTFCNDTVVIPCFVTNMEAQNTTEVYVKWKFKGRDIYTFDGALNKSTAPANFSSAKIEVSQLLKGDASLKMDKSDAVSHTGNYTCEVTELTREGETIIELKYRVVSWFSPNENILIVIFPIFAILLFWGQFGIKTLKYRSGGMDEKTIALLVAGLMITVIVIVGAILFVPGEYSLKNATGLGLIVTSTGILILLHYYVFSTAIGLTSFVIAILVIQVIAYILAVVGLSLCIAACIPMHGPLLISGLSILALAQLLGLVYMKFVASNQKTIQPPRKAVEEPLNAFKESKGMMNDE

B1: TJC4 positive control antibody (antibody, INN chains, looked up, V domains shown)
VH: EVQLVESGGGLVKPGGSLRLSCAASGLTFERAWMNWVRQAPGKGLEWVGRIKRKTDGETTDYAAPVKGRFSISRDDSKNTLYLQMNSLKTEDTAVYYCAGSNRAFDIWGQGTMVTVSS
VL: DIVMTQSPDSLAVSLGERATINCKSSQSVLYAGNNRNYLAWYQQKPGQPPKLLINQASTRASGVPDRFSGSGSGTEFTLIISSLQAEDVAIYYCQQYYTPPLAFGGGTKLEIK
EC50 [1]: 2.8 nM
Fitted maximal MFI [1]: 25400 MFI
Kd [2]: 4.5 nM
koff [2]: 0.0022 s⁻¹
kon [2]: 500000 M⁻¹ s⁻¹
kon (Human CD47-C33G (human) [3]): 190000 M⁻¹ s⁻¹
Kd (Human CD47-C33G (human) [4]): > 530 nM
koff (Human CD47-C33G (human) [4]): > 0.1 s⁻¹
Kd [5]: 4.7 nM
koff [5]: 0.0018 s⁻¹
kon [5]: 380000 M⁻¹ s⁻¹
Kd (Human CD47-C33G (human) [6]): 600 nM
koff (Human CD47-C33G (human) [6]): 0.13 s⁻¹
kon (Human CD47-C33G (human) [6]): 210000 M⁻¹ s⁻¹
Kd [7]: 4.3 nM
koff [7]: 0.0024 s⁻¹
kon [7]: 540000 M⁻¹ s⁻¹
kon (Human CD47-C33G (human) [8]): 490000 M⁻¹ s⁻¹
EC50 [9]: 5.7 nM
EC50 [10]: 4.3 nM
Fitted maximal MFI [10]: 21400 MFI
CCRF-CEM phagocytosis EC50 [11]: 0.49 nM
CCRF-CEM phagocytosis, Phagocytosis (%) [11]: 68.6%
Kd [12]: 4.7 nM
koff [12]: 0.0022 s⁻¹
kon [12]: 460000 M⁻¹ s⁻¹
kon (Human CD47-C33G (human) [13]): 160000 M⁻¹ s⁻¹
Kd [14]: 4.4 nM
kon [14]: 550000 M⁻¹ s⁻¹
Kd (Human CD47-C33G (human) [15]): 540 nM
koff (Human CD47-C33G (human) [15]): 0.09 s⁻¹
kon (Human CD47-C33G (human) [15]): 170000 M⁻¹ s⁻¹
EC50 [16]: 9.7 nM
Kd (Human CD47-C33G (human) [17]): > 200 nM
Kd [18]: 4.4 nM
koff [18]: 0.0024 s⁻¹
kon [18]: 550000 M⁻¹ s⁻¹
Kd (Human CD47-C33G (human) [19]): 540 nM
koff (Human CD47-C33G (human) [19]): 0.09 s⁻¹
kon (Human CD47-C33G (human) [19]): 170000 M⁻¹ s⁻¹
Kd (Human CD47-C33G (human) [20]): > 630 nM
koff (Human CD47-C33G (human) [20]): > 0.1 s⁻¹

Source: patent US20260132197A1
